Like-named read-outs stand apart in the source and are kept apart here.
T1: TNF-gamma-beta (Homo sapiens, UniProt O95150)
T1 construct: made in house; host or cells: 293T cells, transient transfection
T1 sequence (O95150 72-251 limits assumed): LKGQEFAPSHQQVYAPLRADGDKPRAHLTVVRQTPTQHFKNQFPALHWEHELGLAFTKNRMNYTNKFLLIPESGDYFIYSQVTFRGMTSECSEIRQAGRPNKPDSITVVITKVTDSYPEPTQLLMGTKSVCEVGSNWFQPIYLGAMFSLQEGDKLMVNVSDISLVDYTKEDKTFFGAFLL

T2: TNF-gamma-beta (Homo sapiens, UniProt O95150)
T2 construct: expressed in transfected cells
T2 sequence (O95150 1-251): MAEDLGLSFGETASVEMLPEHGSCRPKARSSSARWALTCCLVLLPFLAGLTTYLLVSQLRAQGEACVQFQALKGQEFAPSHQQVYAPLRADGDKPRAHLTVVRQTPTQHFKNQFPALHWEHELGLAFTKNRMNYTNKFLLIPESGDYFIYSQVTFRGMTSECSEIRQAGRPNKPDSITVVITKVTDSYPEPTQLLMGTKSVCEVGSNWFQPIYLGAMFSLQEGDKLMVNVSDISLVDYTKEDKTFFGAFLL

T3: TNF-gamma-beta (Homo sapiens, UniProt O95150)
T3 construct: made in house; host or cells: E. coli (untagged) or 293T (FLAG-tagged)
T3 sequence (O95150 72-251): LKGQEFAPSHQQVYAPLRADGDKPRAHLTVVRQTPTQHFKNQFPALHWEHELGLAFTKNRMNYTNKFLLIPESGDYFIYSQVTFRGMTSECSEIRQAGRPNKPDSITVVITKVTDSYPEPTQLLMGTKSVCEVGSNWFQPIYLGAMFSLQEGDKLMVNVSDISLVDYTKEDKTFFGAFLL

T4: recombinant, untagged TNF-gamma-beta protein (aa 72-251) (human, UniProt O95150 72-251)
T4 construct: they are put here; also called TL1β; non-tagged TNF-gamma-beta
T4 sequence: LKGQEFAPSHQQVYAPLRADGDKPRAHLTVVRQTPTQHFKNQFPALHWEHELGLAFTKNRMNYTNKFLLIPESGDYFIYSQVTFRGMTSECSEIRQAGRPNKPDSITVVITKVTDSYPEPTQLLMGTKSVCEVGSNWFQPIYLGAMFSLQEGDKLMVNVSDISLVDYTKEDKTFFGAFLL


Experiments:
TF-1/SRE-SEAP cells = test: SEAP assay: TNF-gamma-beta induced SEAP in TF-1/SRE-SEAP reporter cells; format: cell-based; settings: without TNF-gamma-beta
Procedure: (§1) Briefly, a poly-D-lysine coated 96-well plate is seeded with TF-1/SRE-SEAP cells (in RPMI+0.2% Fetal bovine serum) at 75,000 cells per well. […] Again cells were incubated overnight. After overnight incubation, conditioned media were collected and SEAP activity was determined using the SEAP Reporter Gene Assay available from Roche Molecular Biochemicals (Indianapolis, Ind.) according to the manufacturer's directions. Briefly, Conditioned media were diluted 1:4 into dilution buffer. Samples were incubated at 65C for 30 minutes to eliminate contaminating AP activity usually present in culture medium. 25 microliters of the heat-inactivated samples were mixed with equal volume of inactivation buffer (containing a mixture of differential alkaline phosphatase inhibitors). Following a 5-minute incubation at room temperature, 50 uL of alkaline phosphatase substrate (CSPD) was added to each well. Chemiluminescence signal was read 10-15 minutes later using a luminometer.
(§2) The premyeloid cell line TF-1 was stably transfected with SRE/SEAP (Signal Response Element/Secreted Alkaline Phosphatase) reporter plasmid that responds to the SRE signal transduction pathway.

TNF-gamma-beta [1] = target: T1, TNF-gamma-beta; test: Coimmunoprecipitation of TNF-gamma-beta by TNFR-Fc proteins; format: binding
Excerpt: The beads were then precipitated and washed extensively with PBST buffer (PBS, 0.5% Triton X-100) before boiled in SDS-sample buffer. Proteins were resolved on 4-20% Tris-Glycine gels (NOVEX), transferred to nitrocellulose membranes, and blotted with anti-Flag M2 monoclonal antibody (1 microgram/ml, Sigma) andhorseradish peroxidase (HRP)-conjugated goat anti-mouse IgG antibody (0.5 microgram/ml).

TNF-gamma-beta [2] = target: T2, TNF-gamma-beta; test: FACS binding of receptor-Fc proteins to cells expressing full length TNF-gamma-beta
Procedure: These cells were used to screen the Fc-fusion form of the extracellular domain of TNFR family members, including TNFR1, Fas, HveA, DR3, DR4, DR5, DR6, DcR1, DcR2, TR6, OPG, RANK, AITR, TAC1, CD40, and OX40. […] TR6 has been previously described as a decoy receptor (Pitti et al., Nature 396:699-703 (1998); Yu et al., J. Biol. Chem. 274:13733-6 (1999)) capable of competing with Fas and HveA for binding of FasL and LIGHT, respectively.
Cells resistant to 0.5 mg/ml Genticin (Invitrogen) were selected and expanded. Expression of TNF-gamma-beta mRNA was confirmed by quantitative RT-PCR analysis and surface expression of TNF-gamma-beta protein confirmed by FACS analyses using TNF-gamma-beta monoclonal antibodies.
One million cells, in 0.1 ml of FACS buffer (PBS, 0.1% BSA, 0.1% NaN3), were incubated with 0.1-1 microgram of protein or antibody at RT for 15 min. The cells were washed with 3 ml of FACS buffer, reacted with biotinylated primary antibody, and stained with PE-conjugated secondary antibody at RT for 15 min. Cells were then washed again, resuspended in 0.5 microgram/ml of propidium iodide, and live cells were gated and analyzed on a FACScan using the CellQuest software (BD Biosciences).

TNF-gamma-beta [3] = target: T3, TNF-gamma-beta; test: Inhibition of TNF-gamma-beta-mediated IFNγ secretion from T cells; format: cell-based; settings: costimulated T cells
Procedure: The extent of the increase in IL-2 receptor expression is consistent with the moderate increase in IL-2 responsiveness compared with IL-2 itself.
1×10^5 cells/ml of purified T cells were seeded in a 24-well tissue culture plate that had been coated with anti-CD3 (0.3 microgram/ml) and anti-CD28 (5.0 microgram/ml) overnight at 4° C. […] ELISA assay for IFNγ, GM-CSF, IL-2 IL-4, IL-10 and TNFα were performed using kits purchased from R & D Systems. Recombinant human IL-2 (5 ng/ml) was used as a positive control. All samples were tested in duplicate and results were expressed as an average of duplicate samples plus or minus error.

TNF-gamma-beta [4] = target: T3, TNF-gamma-beta; test: Inhibition of TNF-gamma-beta activation of NF-κB in 293T cells; format: cell-based
Procedure, shortened: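 293T cells transiently transfected with 1 μg total DNA, including a limited amount of DR3 expression plasmid that alone minimally activates NF-κB. Secreted alkaline phosphatase reporter measured by chemiluminescence in supernatant 24 h post-transfection. Values normalized to pCMV-lacZ transfection control.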

TNF-gamma-beta [5] = target: T1, TNF-gamma-beta; test: Neutralization of TNF-gamma-beta induced SEAP production in TF-1/SRE reporter cells; format: cell-based; settings: TNF-gamma-beta at 200 ng/mL, TF1/SRE reporter cells
Procedure: as §1
These solutions were then incubated for 1 hour at room temperature. […] After the overnight incubation, the SEAP assay was performed as described above.
as §2

TNF-gamma-beta [6] = target: T3, TNF-gamma-beta; test: Inhibition of TNF-gamma-beta induced caspase activation in TF-1 cells; format: cell-based; settings: presence of cycloheximide
Procedure: Briefly, cells growing in microtiter plates are induced to undergo apoptosis, causing an activation of caspase activities. Equal volume of a caspase substrate (Asp-Glu-Val-Asp-Rhodamine 110, or DEVD-R110) solution is then added and incubated for at least 1 hour. During this incubation, cells are being lysed and free R110 is released from the substrate. The level of free R110 is determined fluorimetrically, using a fluorescence reader with excitation filter 470-500 nm and emission filter 500-560 nm.
A black 96-well plate with a clear bottom is seeded with 75,000 TF-1 cells in RPMI containing 1% fetal bovine serum and micrograms/milliliter cyclohexamide. […] Following the manufacturer's directions, an equal volume of 1×substrate solution containing 50 micromolar DEVD-R110 diluted in incubation buffer is added to each well. The 96-well plates are then incubated for 2 hours after which the plate is read in a fluorescence reader with an excitation filter at 485 nm and an emission filter at 535 nm.
These solutions were then incubated for 1 hour at room temperature.
The reagents were incubated for 1 hour at RT to allow the formation of protein-TNF-gamma-beta complexes and then added to the cells. Caspase activity was measured as described above.

[7] = target: T4, recombinant, untagged TNF-gamma-beta …; test: BIAcore 3000, TNFR-Fc immobilised on CM5 chip, TNF-gamma-beta in flow
Procedure: TNFR-Fc were covalently immobilized to the BIAcore sensor chip (CM5 chip) via amine groups using N-ethyl-N′-(dimethylaminopropyl) carbodiimide/N-hydroxysuccinimide chemistry. […] The amount of bound protein was determined during washing of the flow cell with HBS buffer (10 mM HEPES, pH 7.4, 150 mM NaCl, 3.4 mM EDTA, 0.005% Surfactant P20). The flow cell surface was regenerated by displacing bound protein by washing with 20 microliters of 10 mM glycine-HCl, pH 2.3. For kinetic analysis, the on and off rates were determined using the kinetic evaluation program in BIAevaluation 3 software using a 1:1 binding model and the global analysis method.

binding to cells expressing TNF-gamma-beta (FACS) (TNF-gamma-beta [2]; listed as TR6-Fc) | inhibition of TNF-gamma-beta-mediated IFNγ secretion (TNF-gamma-beta [3]) | inhibition of TNF-gamma-beta activation of NF-κB (TNF-gamma-beta [4]) | inhibition of TNF-gamma-beta activation of NF-κB (TNF-gamma-beta [4]; listed as TR6-Fc) | binding result [7] | Molecule | SEAP activity of the Fc protein by itself (TF-1/SRE-SEAP cells) | immunoprecipitation of TNF-gamma-beta (TNF-gamma-beta [1]) | immunoprecipitation of TNF-gamma-beta (TNF-gamma-beta [1]; listed as TR6-Fc) | binding to cells expressing TNF-gamma-beta (FACS) (TNF-gamma-beta [2]) | neutralization of TNF-gamma-beta SEAP activity by receptor-Fc (TNF-gamma-beta [5]) | inhibition of TNF-gamma-beta induced caspase activation (TNF-gamma-beta [6])
bound efficiently | able to inhibit | able to inhibit | specifically inhibited |  | TR6.Fc: full length TR6 (aa 1-300) fused to the Fc domain of human IgG1 (protein, left off: a dimerising Fc or GST, full length TR6 (aa 1-300) fused to the Fc domain of human IgG1) VAETPTYPWRDAETGERLVCAQCPPGTFVQRPCRRDSPTTCGPCPPRHYTQFWNYLERCRYCNVLCGEREEEARACHATHNRACRCRTGFFAHAGFCLEHASCPPGAGVIAPGTPSQNTQCQPCPPGTFSASSSSSEQCQPHRNCTALGLALNVPGSSSHDTLCTSCTGFPLSTRVPGAEECERAVIDFVAFQDISIKRLQRLLQALEAPEGWGPTPRAGRAALQLKLRRRLTELLGAQDGALLVRLLQALRVARMPGLERSVRERFLPVH | showed no activity | can be used to immunoprecipitate TNF-gamma-beta | specifically interacted with FLAG-TNF-gamma-beta | specifically bind cells transfected with TNF-gamma-beta | can be neutralized by TR6.fc fusion protein in a dose dependent manner | inhibited by either DR3-Fc or TR6-Fc protein
 |  |  |  | no binding (tested: 3-370 nM) | BCMA-Fc (Fc fusion, human, UniProt Q02223 1-54, looked up, Control surface of the BIAcore analysis; not shown: Fc part of the fusion; not described for this receptor) MLQMAGQCSQNEYFDSLLHACIPCQLRCSSNTPPLTCQRYCNASVTNSVKGTNA |  |  |  |  |  | 
